{"source": "patent EP4692114A1", "about": "“CALCITONIN ANALOGUE, AND DERIVATIVE THEREOF AND USE THEREOF” (Hangzhou Sciwind Biosciences Co., Ltd., priority 2023, dated 2024)", "molecules": {"B1": {"name": "calcitonin derivative M20 (peptide)", "peptide": "{C20 diacid-γGlu}-ASQLSTAVLGRLSQELHRLQDYPRTDVGAESP-NH2", "SMILES": "CC(C)C[C@H](NC(=O)[C@H](CCCNC(=N)N)NC(=O)CNC(=O)[C@H](CC(C)C)NC(=O)[C@@H](NC(=O)[C@H](C)NC(=O)[C@@H](NC(=O)[C@H](CO)NC(=O)[C@H](CC(C)C)NC(=O)[C@H](CCC(N)=O)NC(=O)[C@H](CO)NC(=O)[C@H](C)NC(=O)CC[C@H](NC(=O)CCCCCCCCCCCCCCCCCCC(=O)O)C(=O)O)[C@@H](C)O)C(C)C)C(=O)N[C@@H](CO)C(=O)N[C@@H](CCC(N)=O)C(=O)N[C@@H](CCC(=O)O)C(=O)N[C@@H](CC(C)C)C(=O)N[C@@H](Cc1c[nH]cn1)C(=O)N[C@@H](CCCNC(=N)N)C(=O)N[C@@H](CC(C)C)C(=O)N[C@@H](CCC(N)=O)C(=O)N[C@@H](CC(=O)O)C(=O)N[C@@H](Cc1ccc(O)cc1)C(=O)N1CCC[C@H]1C(=O)N[C@@H](CCCNC(=N)N)C(=O)N[C@H](C(=O)N[C@@H](CC(=O)O)C(=O)N[C@H](C(=O)NCC(=O)N[C@@H](C)C(=O)N[C@@H](CCC(=O)O)C(=O)N[C@@H](CO)C(=O)N1CCC[C@H]1C(N)=O)C(C)C)[C@@H](C)O"}, "B2": {"name": "calcitonin derivative M37 (peptide)", "peptide": "{C20 diacid-γGlu}-KSQLSTDVLGRLSQELHRLQDYPRTDVGSGSP-NH2", "SMILES": "CC(C)C[C@H](NC(=O)[C@H](CCCNC(=N)N)NC(=O)CNC(=O)[C@H](CC(C)C)NC(=O)[C@@H](NC(=O)[C@H](CC(=O)O)NC(=O)[C@@H](NC(=O)[C@H](CO)NC(=O)[C@H](CC(C)C)NC(=O)[C@H](CCC(N)=O)NC(=O)[C@H](CO)NC(=O)[C@H](CCCCN)NC(=O)CC[C@H](NC(=O)CCCCCCCCCCCCCCCCCCC(=O)O)C(=O)O)[C@@H](C)O)C(C)C)C(=O)N[C@@H](CO)C(=O)N[C@@H](CCC(N)=O)C(=O)N[C@@H](CCC(=O)O)C(=O)N[C@@H](CC(C)C)C(=O)N[C@@H](Cc1c[nH]cn1)C(=O)N[C@@H](CCCNC(=N)N)C(=O)N[C@@H](CC(C)C)C(=O)N[C@@H](CCC(N)=O)C(=O)N[C@@H](CC(=O)O)C(=O)N[C@@H](Cc1ccc(O)cc1)C(=O)N1CCC[C@H]1C(=O)N[C@@H](CCCNC(=N)N)C(=O)N[C@H](C(=O)N[C@@H](CC(=O)O)C(=O)N[C@H](C(=O)NCC(=O)N[C@@H](CO)C(=O)NCC(=O)N[C@@H](CO)C(=O)N1CCC[C@H]1C(N)=O)C(C)C)[C@@H](C)O"}, "B3": {"name": "calcitonin derivative M54 (peptide)", "peptide": "{C20 diacid}-DASQLSTAVLGRLSEELHRLQDYPRTDVGSGSP-NH2", "SMILES": "CC(C)C[C@H](NC(=O)[C@H](CCCNC(=N)N)NC(=O)CNC(=O)[C@H](CC(C)C)NC(=O)[C@@H](NC(=O)[C@H](C)NC(=O)[C@@H](NC(=O)[C@H](CO)NC(=O)[C@H](CC(C)C)NC(=O)[C@H](CCC(N)=O)NC(=O)[C@H](CO)NC(=O)[C@H](C)NC(=O)[C@H](CC(=O)O)NC(=O)CCCCCCCCCCCCCCCCCCC(=O)O)[C@@H](C)O)C(C)C)C(=O)N[C@@H](CO)C(=O)N[C@@H](CCC(=O)O)C(=O)N[C@@H](CCC(=O)O)C(=O)N[C@@H](CC(C)C)C(=O)N[C@@H](Cc1c[nH]cn1)C(=O)N[C@@H](CCCNC(=N)N)C(=O)N[C@@H](CC(C)C)C(=O)N[C@@H](CCC(N)=O)C(=O)N[C@@H](CC(=O)O)C(=O)N[C@@H](Cc1ccc(O)cc1)C(=O)N1CCC[C@H]1C(=O)N[C@@H](CCCNC(=N)N)C(=O)N[C@H](C(=O)N[C@@H](CC(=O)O)C(=O)N[C@H](C(=O)NCC(=O)N[C@@H](CO)C(=O)NCC(=O)N[C@@H](CO)C(=O)N1CCC[C@H]1C(N)=O)C(C)C)[C@@H](C)O"}, "B4": {"name": "calcitonin derivative M67 (peptide)", "peptide": "{C22 diacid-γGlu-AEEA-AEEA-AEEA-AEEA}-ASQLSTAVLGRLSEELHRLQDYPRTDVGSGSP-NH2", "SMILES": "CC(C)C[C@H](NC(=O)[C@H](CCCNC(=N)N)NC(=O)CNC(=O)[C@H](CC(C)C)NC(=O)[C@@H](NC(=O)[C@H](C)NC(=O)[C@@H](NC(=O)[C@H](CO)NC(=O)[C@H](CC(C)C)NC(=O)[C@H](CCC(N)=O)NC(=O)[C@H](CO)NC(=O)[C@H](C)NC(=O)COCCOCCNC(=O)COCCOCCNC(=O)COCCOCCNC(=O)COCCOCCNC(=O)CC[C@H](NC(=O)CCCCCCCCCCCCCCCCCCCCC(=O)O)C(=O)O)[C@@H](C)O)C(C)C)C(=O)N[C@@H](CO)C(=O)N[C@@H](CCC(=O)O)C(=O)N[C@@H](CCC(=O)O)C(=O)N[C@@H](CC(C)C)C(=O)N[C@@H](Cc1c[nH]cn1)C(=O)N[C@@H](CCCNC(=N)N)C(=O)N[C@@H](CC(C)C)C(=O)N[C@@H](CCC(N)=O)C(=O)N[C@@H](CC(=O)O)C(=O)N[C@@H](Cc1ccc(O)cc1)C(=O)N1CCC[C@H]1C(=O)N[C@@H](CCCNC(=N)N)C(=O)N[C@H](C(=O)N[C@@H](CC(=O)O)C(=O)N[C@H](C(=O)NCC(=O)N[C@@H](CO)C(=O)NCC(=O)N[C@@H](CO)C(=O)N1CCC[C@H]1C(N)=O)C(C)C)[C@@H](C)O"}}, "note": "*1 amine or outer side, *2 acyl side, *3 side chain or, on linkers, in order; H or OH if unused. Where a SMILES comes first, the peptide text is derived from it. Where no end group is shown, it is not given here. The star is where a group is joined. C22 diacid = O=C(O)CCCCCCCCCCCCCCCCCCCCC(=O)*; C20 diacid = O=C(O)CCCCCCCCCCCCCCCCCCC(=O)*; γGlu = O=C(O)[C@H](CCC(=O)[*:2])N[*:1]; AEEA = NCCOCCOCC(=O)O", "data": [{"biological_target": "T1, human amylin receptors (Homo sapiens, UniProt O60896+P30988)", "T1 sequence (P30988 25-474)": "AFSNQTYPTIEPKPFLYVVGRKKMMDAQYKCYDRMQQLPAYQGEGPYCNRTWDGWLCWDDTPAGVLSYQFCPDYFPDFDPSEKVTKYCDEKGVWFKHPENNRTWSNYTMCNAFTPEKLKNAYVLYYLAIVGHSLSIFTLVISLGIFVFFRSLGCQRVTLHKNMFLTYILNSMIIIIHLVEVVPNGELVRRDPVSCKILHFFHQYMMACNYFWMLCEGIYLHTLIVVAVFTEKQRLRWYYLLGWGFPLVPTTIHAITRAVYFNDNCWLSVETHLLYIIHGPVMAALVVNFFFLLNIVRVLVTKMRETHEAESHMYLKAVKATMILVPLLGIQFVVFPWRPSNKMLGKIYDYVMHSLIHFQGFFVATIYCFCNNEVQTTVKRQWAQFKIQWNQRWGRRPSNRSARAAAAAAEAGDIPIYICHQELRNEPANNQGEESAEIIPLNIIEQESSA", "T1 sequence (O60896 24-148 partner)": "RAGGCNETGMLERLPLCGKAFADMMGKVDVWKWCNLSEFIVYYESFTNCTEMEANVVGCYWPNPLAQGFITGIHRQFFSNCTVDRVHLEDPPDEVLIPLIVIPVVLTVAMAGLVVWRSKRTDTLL", "experiment": "Luciferase assay of amylin (amylin receptor/CRE-luc cell line);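 also: agonist potency from luminescence of cAMP response element-driven luciferase, EC50 derived from a standard curve of signal versus compound concentration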", "type": "cell-based", "conditions": "stably transfected amylin receptor/CRE-luc CHO cells (CHO-K1/Gal5/AMY3), 24 hours incubation, luciferase readout", "units": {"EC50": "nM"}, "description": "The objective of this assay is to test the activity or potency of calcitonin analogues or derivatives on human amylin receptors in vitro using a luciferase assay.\nUsing the standard protocol, CHO-K1/Gal5/AMY3 cells (purchased from GenScript, with the calcitonin receptor and the receptor activity modifying peptide (RAMP) constructed already) were transfected with a plasmid containing a luciferase expression cassette driven by multiple copies of cAMP response elements (CREs). The cells were cultured in an F12 medium containing 200 ug/mL Zeocin, 2 ug/mL puromycin, 100 ug/mL hygromycin, and 400 ug/mL G418 to afford a stably transfected amylin receptor/CRE-luc cell line.\nTo each well of a white 96-well plate was added 50 µL of the tested sample solution at a respective concentration.\nThe stably transfected amylin receptor/CRE-luc CHO cells were resuspended in the growth medium at a certain density, and 50 µL of the cell suspension was added at a density of about 20000 cells per well to the white 96-well plate containing the tested sample solution. After incubation of 24 hours at 37°C and 5% CO2, 100 µL of a Luciferase substrate was added to each well, incubated for 3 minutes, and finally was tested for luminescence on SpectraMax L (Molecular Devices) with the software SoftMax Pro 7.0.3 GxP. A standard curve was plotted using the fluorescent intensities for calculation of EC50.", "values": [{"molecule": "CC(C)C[C@H](NC(=O)[C@H](CCCNC(=N)N)NC(=O)CNC(=O)[C@H](CC(C)C)NC(=O)[C@@H](NC(=O)[C@H](C)NC(=O)[C@@H](NC(=O)[C@H](CO)NC(=O)[C@H](CC(C)C)NC(=O)[C@H](CCC(N)=O)NC(=O)[C@H](CO)NC(=O)[C@H](C)NC(=O)CC[C@H](NC(=O)CCCCCCCCCCCCCCCCCCC(=O)O)C(=O)O)[C@@H](C)O)C(C)C)C(=O)N[C@@H](CO)C(=O)N[C@@H](CCC(N)=O)C(=O)N[C@@H](CCC(=O)O)C(=O)N[C@@H](CC(C)C)C(=O)N[C@@H](Cc1c[nH]cn1)C(=O)N[C@@H](CCCNC(=N)N)C(=O)N[C@@H](CC(C)C)C(=O)N[C@@H](CCC(N)=O)C(=O)N[C@@H](CC(=O)O)C(=O)N[C@@H](Cc1ccc(O)cc1)C(=O)N1CCC[C@H]1C(=O)N[C@@H](CCCNC(=N)N)C(=O)N[C@H](C(=O)N[C@@H](CCC(N)=O)C(=O)N[C@H](C(=O)NCC(=O)N[C@@H](CO)C(=O)NCC(=O)N[C@@H](CO)C(=O)N1CCC[C@H]1C(N)=O)C(C)C)[C@@H](C)O", "note": "[M15] ({C20 diacid-γGlu}-ASQLSTAVLGRLSQELHRLQDYPRTQVGSGSP-NH2)", "EC50": 0.016}, {"molecule": "CC(C)C[C@H](NC(=O)CC[C@H](NC(=O)CCCCCCCCCCCCCCCCCCC(=O)O)C(=O)O)C(=O)N[C@@H](CO)C(=O)N[C@@H](CCC(N)=O)C(=O)N[C@@H](CC(C)C)C(=O)N[C@@H](CO)C(=O)N[C@H](C(=O)N[C@@H](CC(C)C)C(=O)N[C@H](C(=O)N[C@@H](CC(C)C)C(=O)NCC(=O)N[C@@H](CCCNC(=N)N)C(=O)N[C@@H](CC(C)C)C(=O)N[C@@H](CO)C(=O)N[C@@H](CCC(N)=O)C(=O)N[C@@H](CCC(=O)O)C(=O)N[C@@H](CC(C)C)C(=O)N[C@@H](Cc1c[nH]cn1)C(=O)N[C@@H](CCCNC(=N)N)C(=O)N[C@@H](CC(C)C)C(=O)N[C@@H](CCC(N)=O)C(=O)N[C@@H](CC(=O)O)C(=O)N[C@@H](Cc1ccc(O)cc1)C(=O)N1CCC[C@H]1C(=O)N[C@@H](CCCNC(=N)N)C(=O)N[C@H](C(=O)N[C@@H](CC(=O)O)C(=O)N[C@H](C(=O)NCC(=O)N[C@@H](CO)C(=O)NCC(=O)N[C@@H](CO)C(=O)N1CCC[C@H]1C(N)=O)C(C)C)[C@@H](C)O)C(C)C)[C@@H](C)O", "note": "[M25] ({C20 diacid-γGlu}-LSQLSTLVLGRLSQELHRLQDYPRTDVGSGSP-NH2)", "EC50": 0.016}, {"molecule": "CC(C)C[C@H](NC(=O)[C@H](CCCNC(=N)N)NC(=O)CNC(=O)[C@H](CC(C)C)NC(=O)[C@@H](NC(=O)[C@H](C)NC(=O)[C@@H](NC(=O)[C@H](CO)NC(=O)[C@H](CC(C)C)NC(=O)[C@H](CCC(N)=O)NC(=O)[C@H](CO)NC(=O)[C@H](C)NC(=O)[C@H](CCC(=O)O)NC(=O)CCCCCCCCCCCCCCCCCCC(=O)O)[C@@H](C)O)C(C)C)C(=O)N[C@@H](CO)C(=O)N[C@@H](CCC(=O)O)C(=O)N[C@@H](CCC(=O)O)C(=O)N[C@@H](CC(C)C)C(=O)N[C@@H](Cc1c[nH]cn1)C(=O)N[C@@H](CCCNC(=N)N)C(=O)N[C@@H](CC(C)C)C(=O)N[C@@H](CCC(N)=O)C(=O)N[C@@H](CC(=O)O)C(=O)N[C@@H](Cc1ccc(O)cc1)C(=O)N1CCC[C@H]1C(=O)N[C@@H](CCCNC(=N)N)C(=O)N[C@H](C(=O)N[C@@H](CC(=O)O)C(=O)N[C@H](C(=O)NCC(=O)N[C@@H](CO)C(=O)NCC(=O)N[C@@H](CO)C(=O)N1CCC[C@H]1C(N)=O)C(C)C)[C@@H](C)O", "note": "[M52] ({C20 diacid}-EASQLSTAVLGRLSEELHRLQDYPRTDVGSGSP-NH2)", "EC50": 0.017}]}, {"biological_target": "T2, human amylin receptor (AMY3) on CHO-K1/Gal5/AMY3 cells (human, UniProt P30988 25-474; O60896 24-148)", "T2 sequence (looked up) 1": "T1 sequence (P30988 25-474)", "T2 sequence (looked up) 2": "T1 sequence (O60896 24-148 partner)", "experiment": "cell-based or functional assay", "conditions": "not given", "units": {"EC50/nM, CRE-luciferase in amylin receptor/CRE-luc CHO cells": "nM"}, "values": [{"molecule": "B1", "EC50/nM, CRE-luciferase in amylin receptor/CRE-luc CHO cells": 0.017}, {"molecule": "ASQLSTAVLGRLSQELHRLQDYPRTDVGSGSP-NH2", "note": "[calcitonin analogue M5]", "EC50/nM, CRE-luciferase in amylin receptor/CRE-luc CHO cells": 0.033}, {"molecule": "B2", "EC50/nM, CRE-luciferase in amylin receptor/CRE-luc CHO cells": 0.052}, {"molecule": "B3", "EC50/nM, CRE-luciferase in amylin receptor/CRE-luc CHO cells": 0.017}, {"molecule": "B4", "EC50/nM, CRE-luciferase in amylin receptor/CRE-luc CHO cells": 0.017}]}]}
